The results in this text go back to patent US20250368734A1 (ANTENGENE BIOLOGICS, published 2025).

Assay [1] deals with T1, human GPRC5D (human, UniProt Q9NZD1 1-345).
T1 construct: whole, on cells; also called hGPRC5D; G-protein coupled receptor family C group 5 member D
Description: FACS, OPM-2 cells. The source says: (§1) The subcloning plates were screened by Mirrorball assay and the subclones with good binding ability were expanded to 24-wells for confirmation tests. The specificity and cross-reactivity of these subclones were confirmed with FACS analysis. Briefly, parental HEK293T, HEK293T cells stably over-expressing human GPRC5D protein (i.e., HEK293T-hGPRC5D), HEK293T cells stably over-expressing cynomolgus monkey GPRC5D protein (i.e., HEK293T-cynoGPRC5D), HEK293T cells stably over-expressing mouse GPRC5D protein (i.e., HEK293T-mGPRC5D), and OPM2 cells were incubated with antibodies produced by each subclone, respectively. Fluorescent dye-conjugated secondary antibody was used to detect the binding of the primary antibody with the cells. Median fluorescence intensity (MFI) was measured by FACS analysis,
(§2) As a result, 21 antibodies were discovered with unique sequences showing positive binding with HEK293T-hGPRC5D and OPM2 cells. Among which, some clones could also bind with HEK293T-cynoGPRC5D and/or HEK293T-mGPRC5D. […] ATG596 was a positive human IgG1 control antibody which comprises a VH region having an amino acid sequence as set forth in SEQ ID NO: 199, and a VL region having an amino acid sequence as set forth in SEQ ID NO: 200.
In general terms: Flow cytometry measures light scatter and fluorescence of single cells or particles in a stream.

Assay [2] addresses T2, cynomolgus monkey GPRC5D (cynomolgus monkey).
T2 construct: whole, on cells; HEK293T-cynoGPRC5D cells; also called cynoGPRC5D
As to the kind of experiment: FACS, HEK293T-cynoGPRC5D cells.
Text: as §1, §2

Assay [3] concerns the target T1, human GPRC5D. Description: FACS, HEK293T-hGPRC5D cells.
Text: as §1, §2

Assay [4] deals with T1, human GPRC5D. As to the kind of experiment: FACS, CHOS-hGPRC5D cells.
Assay [5] concerns the target T3, mouse GPRC5D (mouse, UniProt Q9JIL6 1-344).
T3 construct: whole, on cells; HEK293T-mGPRC5D cells; also called mGPRC5D; murine GPRC5D
T3 sequence (looked up): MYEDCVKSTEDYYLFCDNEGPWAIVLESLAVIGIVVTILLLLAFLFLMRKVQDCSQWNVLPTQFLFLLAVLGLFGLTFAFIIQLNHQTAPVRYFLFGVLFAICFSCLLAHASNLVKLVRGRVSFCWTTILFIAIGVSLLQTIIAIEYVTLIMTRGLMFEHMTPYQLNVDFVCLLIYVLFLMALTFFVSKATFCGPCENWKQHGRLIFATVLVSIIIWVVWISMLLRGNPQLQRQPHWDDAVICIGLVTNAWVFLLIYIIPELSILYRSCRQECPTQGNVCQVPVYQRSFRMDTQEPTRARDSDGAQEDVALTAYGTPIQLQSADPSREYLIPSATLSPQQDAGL
Description: FACS, HEK293T-mGPRC5D cells.

In assay [6] the target is T2, cynomolgus monkey GPRC5D. Description: FACS, HEK293T-cynoGPRC5D cells. This is another data set of the same source.

T1 sequence (Q9NZD1 whole entry): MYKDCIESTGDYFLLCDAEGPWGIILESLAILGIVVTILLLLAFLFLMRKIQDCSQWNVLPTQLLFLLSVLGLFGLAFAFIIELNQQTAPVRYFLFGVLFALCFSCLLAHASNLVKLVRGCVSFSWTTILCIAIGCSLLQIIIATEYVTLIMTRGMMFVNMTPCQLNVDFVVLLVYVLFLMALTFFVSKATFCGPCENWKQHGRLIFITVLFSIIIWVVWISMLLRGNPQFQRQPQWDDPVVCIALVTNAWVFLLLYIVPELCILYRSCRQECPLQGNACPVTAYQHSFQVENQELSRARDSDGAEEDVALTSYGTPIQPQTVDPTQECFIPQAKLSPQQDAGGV

B1: 83A9B8 (antibody, V domains shown)
VH: EVQLQQSGPELVKPGASVKMSCKASGYTFSNYVIHWVKQKPGQGLEWIGYFNPYNDGSKYNEKFKGKATLTSDKSSSTAYMELSSLTSEDSAVYYCARGGVRRYFDVWGAGTTVTVSS
VL: DIQMTQSPSSLSASLGERVSLTCRASQDIGDNLNWLQQEPDGTIKRLIYATFSLDSGVPKRFSGSRSGSVYSLTISRLESEDFVDYFCLHYASFPYTFGGGTKLEIK
notes: Mouse monoclonal antibody from hybridoma subclone
For B1, the “% Positive” value in assay [1] came to 98.3%; in assay [2], 55.7%; in assay [3], 94.1%. The values for the MFI in assay [1], in assay [2] and in assay [3] were 824, 278 and 4930, respectively.

B2: ch116F1G6 (antibody, V domains shown)
VH: EVQLQHSGPELVKPGASVKMSCKASGYTFTTYVMHWVKQKPGQGLEWIGYINPYNDGTKYNEKFKGKATLTSDKSSSTAYMELSSLTSEDSAVYYCARGGVRRYFDVWGAGTTVTVSS
VL: DIQMTQSPSSLSASLGERVSLTCRASQDIGSNLNWLQQEPNGTIKRLIYATFTLDSGVPKRFSGSRSGSDYSLTISSLESEDFVDYYCLQYASFPYTFGGGTKLEIK
On to B2, for which, in assay [4], the midpoint of the response, the EC50, lay at 0.863 nM and the Top worked out at 1170.

B3: 116F1G6 (antibody, V domains shown)
VH: EVQLQHSGPELVKPGASVKMSCKASGYTFTTYVMHWVKQKPGQGLEWIGYINPYNDGTKYNEKFKGKATLTSDKSSSTAYMELSSLTSEDSAVYYCARGGVRRYFDVWGAGTTVTVSS
VL: DIQMTQSPSSLSASLGERVSLTCRASQDIGSNLNWLQQEPNGTIKRLIYATFTLDSGVPKRFSGSRSGSDYSLTISSLESEDFVDYYCLQYASFPYTFGGGTKLEIK
notes: as for B1
In the case of B3, the “% Positive” value amounted to 98.4% in assay [1], 41.4% in assay [2] and 96.2% in assay [3]. Besides, the results for the MFI in assay [1], in assay [2] and in assay [3] were 1040, 82.6 and 42800, respectively.

B4: ch83A9B8 (antibody, V domains shown)
VH: EVQLQQSGPELVKPGASVKMSCKASGYTFSNYVIHWVKQKPGQGLEWIGYFNPYNDGSKYNEKFKGKATLTSDKSSSTAYMELSSLTSEDSAVYYCARGGVRRYFDVWGAGTTVTVSS
VL: DIQMTQSPSSLSASLGERVSLTCRASQDIGDNLNWLQQEPDGTIKRLIYATFSLDSGVPKRFSGSRSGSVYSLTISRLESEDFVDYFCLHYASFPYTFGGGTKLEIK
As to B4, in assay [4], a half-maximal effect (EC50) was put at 0.4 nM and the Top was determined as 1840.

B5: ch12G12C2 (antibody, V domains shown)
VH: QIQLVQSGPELKMPGETVKISCKASGYTFTTYGLSWVKQAPGKGLKWMGWINTFSGVPIYADDFKGRFAFSLETSASTAYLQINNLKNEDTATYFCARWGIRQRGDYWGQGATLTVSS
VL: QIVLTQSPAIMSASPGEKVTMTCSASSSVSYLHWYQQKSGTSPKRWIYDTSKLASGVPVRFSGSGSETSYSLTISSMEAEDAATYYCQQWTSNPPTFGGGTKLEIK
As to B5, the 50% effective concentration (EC50) (as a rule, the concentration giving half of the maximal effect) in assay [5] worked out at 995 nM; in assay [6], 5.94 nM; in assay [4], 4.06 nM. For the same molecule, the Top in assay [5] was found to be 1.48e+06; in assay [6], 28200; in assay [4] it was 3120.

B6: ch28H9C12 (antibody, V domains shown)
VH: EVQLVESGGGLVKPGGSLKLSCAASGFTFSDYGMHWVRQAPEKGLEWVAYISSGSSTIYYADTVKGRFTISRDNAKNTLFLQMTSLRSEDTAIYYCVRRPWYFDVWGTGTTVTVSS
VL: DVLMTQTPLSLPVSLGDQASISCRSSQSIVHSNGNTYLQWYLQKPGQSPKLLIYKVSNRFSGVPDRFSGSGSGTDFTLKISRLEAEDLGVYYCFQGSHVPFTFGSGTKLEIK
Turning to B6, the results for the EC50 in assay [5], in assay [6] and in assay [4] were 110 nM, 14.8 nM and 2.83 nM, respectively. Also, the Top in assay [5] is 26500; in assay [6], 65900; in assay [4], 3960.

B7: ch82A1C10 (antibody, V domains shown)
VH: QVQLKESGPGLVAPSQSLSITCTVSGFSLTNYAVTWVRQPPGKGLEWLGVIWGDGSTYYHSALVSRLSITKDNSRTQVLLKLNSLQTDDTARYYCAKGGYSPFAYWGQGTLVTVSA
VL: DVVMTQTPLSLPVSLGDQASISCRSSQSLVHSNGNTYLHWYLQKPGQSPKLLIFKVSNRFSGVPDRFSGSGSGTDFTLKISRVEAEDLGVYFCSQNTHVPFTFGSGTKLEIK
Take B7: in assay [4], the half-maximal effective concentration (EC50) worked out at 2.76 nM and the Top came to 2680.

B8: ch36A3G8 (antibody, V domains shown)
VH: QVQLQQSGAELARPGASVKMSCKASGYTFTTYTMHWIKQRPGQDLEWIGFINPSSGYTKYNQNFKDKATLTADKSSTTAYMQLNSLTSEDSAVYYCASPYGNIYFDVWGTGTTVTVSS
VL: DIVMTQSQKFMSTAVGDRVSITCKASQNVGTAVAWYQQKPGQSPKLLIYSASNRYTGVPDRFTGSGSGTDFTLTISNMQSEDLADYFCQQYSSYPLTFGAGTKLELK
Take B8: in assay [4], the response was half-maximal at 2.64 nM (EC50) and the Top came out at 2780.

B9: ch20C4E1 (antibody, V domains shown)
VH: EVRLVESGGALVRPGGSLKLSCAASGFTFSDYGMHWVRQAPEKGLEWIAFISSVSFTIYYADTVKGRFTISRDNAKNTLFLQMTSLRSEDTALYYCTRLGPHWYFDVWGTGTTVTVSS
VL: DVVLTQTPLSLPVSLGDQASISCRSSQSLVYSNGNTYLHWFLQKPGQSPQLLIYKVSNRFSGVPDRFSGSGSGTDFTLKISRVEAEDLGVYFCSQSTPVPTFGGGTKLEIK
As to B9, the 50% effective concentration (EC50) in assay [5] turned out to be 3940 nM; in assay [6], 11.5 nM; in assay [4], 2.83 nM. Moreover, the Top in assay [5] stood at 5.06e+06; in assay [6], 45800; in assay [4], 4110.

B10: 119E4B4 (antibody, V domains shown)
VH: EVQLQQSGAELVKPGASVKLSCTASGFNIKDTYMHWVKQRPEQGLEWIGRIDPANGNTKYDPKFQGKATITADTSSNTAYLQLSSLTSEDTAVYYCARDYGNYEDYAMDYWGQGTSVTVSS
VL: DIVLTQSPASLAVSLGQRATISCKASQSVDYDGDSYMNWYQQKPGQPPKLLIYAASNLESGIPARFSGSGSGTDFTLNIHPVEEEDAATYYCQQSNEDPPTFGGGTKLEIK
notes: as for B1
B10: the “% Positive” value amounted to 98.6% in assay [1], 69.6% in assay [2] and 88.2% in assay [3]. Besides, the values for the MFI in assay [1], in assay [2] and in assay [3] were 867, 709 and 3240, respectively.

B11: ch15D6G2 (antibody, V domains shown)
VH: EVQLVESGGDLVKPGGYLRLSCAASGFTFSSHGMSWVRQTPDKRLEWVATISSGGRNTYYPDSVKGRFTISRDNAKNILYLQMSSLKSEDTAMFYCTRHSGDAMDYWGQGTSVTVSS
VL: DILLTQSPAILSVSPGERVSFSCRASQSIGTNIHWYQQRTNGSPRLLIKYASESISGIPSRFSGSGSGTDFTLSINSVESEDIADYYCQQSKSWPTFGGGTKLEIK
Consider B11, for which the results for the EC50 in assay [5], in assay [6] and in assay [4] were 592 nM, 19.3 nM and 1.27 nM, respectively. Further, the Top turned out to be 648000 in assay [5], 123000 in assay [6] and 4080 in assay [4].

B12: 116G1G4 (antibody, V domains shown)
VH: EVQLQQSGPELVKPGASVKMSCKASGYTFTYYIMHWVKQEPGQGLQWIGYINPYNDGAYYSARFKGKATLTSDKSSSTAYMDLTSLTSEDSAVYYCARGGVRRYFDVWGAGTTVTVSS
VL: DIQMTQSPSSLSASLGERVILTCRASQDIGSNLIWLQQKPDGTIKRLIYATFNLDSGVSKRFSGSRSGSDYSLTISSLDSEDFVDYYCLQYASSPYTFGGGTKLEIK
notes: as for B1
Take B12: the figures for the “% Positive” value in assay [1], in assay [2] and in assay [3] were 97.4%, 59.8% and 94.4%, respectively. Also, the MFI was 706 in assay [1], 344 in assay [2] and 6050 in assay [3].

B13: ch116G1G4 (antibody, V domains shown)
VH: EVQLQQSGPELVKPGASVKMSCKASGYTFTYYIMHWVKQEPGQGLQWIGYINPYNDGAYYSARFKGKATLTSDKSSSTAYMDLTSLTSEDSAVYYCARGGVRRYFDVWGAGTTVTVSS
VL: DIQMTQSPSSLSASLGERVILTCRASQDIGSNLIWLQQKPDGTIKRLIYATFNLDSGVSKRFSGSRSGSDYSLTISSLDSEDFVDYYCLQYASSPYTFGGGTKLEIK
In assay [4], B13 returned an EC50 of 0.686 nM and a Top of 2240.
